This note sets out measurements from publication PMC4539990.

For this test, the target named is purified FLAG-cortactin (rat) (UniProt Q66HL2). The test is described as follows: pull-down.

pKd: −log10 of the molar value.

Chain of UniProt Q66HL2 (Q66HL2 whole entry): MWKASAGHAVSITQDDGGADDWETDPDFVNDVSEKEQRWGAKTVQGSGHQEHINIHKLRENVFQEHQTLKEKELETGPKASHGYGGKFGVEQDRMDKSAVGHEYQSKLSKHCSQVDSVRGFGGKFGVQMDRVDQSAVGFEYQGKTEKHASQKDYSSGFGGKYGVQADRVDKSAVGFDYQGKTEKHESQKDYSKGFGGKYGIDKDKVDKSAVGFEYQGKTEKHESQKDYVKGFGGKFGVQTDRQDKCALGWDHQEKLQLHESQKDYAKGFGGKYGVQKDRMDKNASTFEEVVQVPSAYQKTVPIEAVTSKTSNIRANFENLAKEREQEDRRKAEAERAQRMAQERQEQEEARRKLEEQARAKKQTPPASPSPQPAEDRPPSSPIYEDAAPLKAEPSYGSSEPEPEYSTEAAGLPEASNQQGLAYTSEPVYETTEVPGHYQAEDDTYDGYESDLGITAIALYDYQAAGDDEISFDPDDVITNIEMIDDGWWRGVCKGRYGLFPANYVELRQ

“purified shootin1 wild type (natural protein)” had a pKd of 7.60.
